# Data reported in paper PMC9608196.
# Key:
# [1] = target: His6-tagged full-length gp24 (tail fiber protein of myocyanophage Pam3) (cyanophage Pam3); experiment: SEC; His-gp24 co-expressed with untagged gp25 in E. coli, purified by Ni-NTA; Superdex 200 Increase 10/300 column; peaks analysed by SDS-PAGE
# [2] = target: His6-tagged full-length gp24 (tail fiber protein of myocyanophage Pam3) (cyanophage Pam3); experiment: SEC-MALS; Superdex 200 Increase 10/300 GL in 20 mM Tris-HCl pH 7.0, 100 mM NaCl, 7 mM beta-mercaptoethanol; 1 mg/mL, 100 uL
# [3] = target: His6-tagged full-length gp24 (tail fiber protein of myocyanophage Pam3) (cyanophage Pam3); experiment: SDS-PAGE of samples that were not boiled; purified protein treated with beta-mercaptoethanol, not boiled
# [4] = target: His6-tagged full-length gp24 (tail fiber protein of myocyanophage Pam3) (cyanophage Pam3); experiment: SEC; individually expressed His-gp24 or His-gp25; Superdex 200 Increase 10/300 column; peaks analysed by SDS-PAGE
# [5] = target: His6-tagged full-length gp25 (tail fiber chaperone of myocyanophage Pam3), expressed alone (cyanophage Pam3); experiment: as above
substance,measurement,setting,value
His6-tagged full-length gp24 (tail fiber protein of myocyanophage Pam3) (natural protein),stoichiometry N,[1],3
same,stoichiometry N,[2],3
same,stoichiometry N,[3],3
same,stoichiometry N,[4],3
"His6-tagged full-length gp25 (tail fiber chaperone of myocyanophage Pam3), expressed alone (natural protein)",stoichiometry N,[5],3
"gp25 (tail fiber chaperone of myocyanophage Pam3), untagged, co-expressed with His-gp24 (natural protein)",stoichiometry N (gp25 per gp24 (3:3)),[2],1
